Measured values reported in patent US20030203464.

B1: Type I Rac-GEF (protein)
chain: MEYMPMEIRHDLEILQPEEIKLQEAMFELVTSEASYYKSLNLLVSHFMENERIRKILHPSEAHILFSNVLDVLAVSERFLLELEHRMEENIVISDVCDIVYRYAADHFSVYITYVSNQTYQERTYKQLLQEKAAFRELIAQLELDPKCRGLPFSSFLILPFQRITRLKLLVQNILKRVEERSERECTALDAHKELEMVVKACNEGVRKMSRTEQMISIQKKMEFKIKSVPIISHSRWLLKQGELQQMSGPKTSRTLRTKKLFHEIYLFLFNDLLVICRQIPGDKYQVFDSAPRGLLRVEELEDQGQTLANVFILRLLENADDREATYMLKASSQSEMKRWMTSLAPNRRTKFVSFTSRLLDCPQVQCVHPYVAQQPDELTLELADILNILDKTDDGWIFGERLHDQERGWFPSSMTEEILNPKIRSQNLKECFRVHKMDDPQRSQNKDRRKLGSRNRQ
B2: Type II Rac-GEF (protein)
chain: B1 chain

Sequence of RhoA, P61586 (P61586 whole entry): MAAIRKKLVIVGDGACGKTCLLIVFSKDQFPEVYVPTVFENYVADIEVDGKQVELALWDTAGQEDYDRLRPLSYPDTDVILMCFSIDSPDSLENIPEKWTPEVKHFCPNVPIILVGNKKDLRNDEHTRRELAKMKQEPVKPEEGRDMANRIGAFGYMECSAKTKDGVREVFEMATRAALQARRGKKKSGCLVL
Sequence of Cdc42, P60953 (P60953 whole entry, looked up): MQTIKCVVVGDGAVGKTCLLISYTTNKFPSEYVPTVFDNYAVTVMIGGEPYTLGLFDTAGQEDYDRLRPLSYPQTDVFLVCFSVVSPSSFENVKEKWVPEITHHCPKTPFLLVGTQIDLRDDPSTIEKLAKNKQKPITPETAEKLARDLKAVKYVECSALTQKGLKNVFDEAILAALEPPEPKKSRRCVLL

| Protein | exchange activity on Rac1, RhoA and Cdc42 (Cdc42, P60953) | exchange activity on Rac1, RhoA and Cdc42 (Rac1, P63000) | exchange activity on Rac1, RhoA and Cdc42 (RhoA, P61586) |
| --- | --- | --- | --- |
| B1 | but also displays activity against both RhoA and Cdc42 | Rac GEF is primarily selective for Rac1 | but also displays activity against both RhoA and Cdc42 |
| B2 | but also displays activity against both RhoA and Cdc42 | Rac GEF is primarily selective for Rac1 | but also displays activity against both RhoA and Cdc42 |
